Data reported in ChEMBL document CHEMBL1126368, “Carbocyclic phosphonate analogs of 2,3-dideoxyadenosine-5-monophosphate as substrates of 5-phosphoribosyl-1-pyrophosphate (PRPP) synthetate” (Bioorg Med Chem Lett, 1992).

Legend:
[1] = Ratio (FA) of Vmax/Km of AMP to that of compound
[2] = Ratio (FA) of Vmax/Km of the compound
[3] = substrate: Nc1ncnc2c1ncn2C1CCC(COP(=O)(O)O)O1; test: Vmax as a substrate for per mg of Pyrophosphate Synthetase (PRPP); settings: Escherichia coli
[4] = substrate: Nc1ncnc2c1ncn2C1O[C@H](COP(=O)(O)O)[C@H](O)[C@@H]1O; test: (§1) Vmax as a substrate for Pyrophosphate Synthetase (PRPP); settings: Escherichia coli
[5] = substrate: Nc1ncnc2c1ncn2[C@H]1CC[C@@H](CCOP(=O)(O)O)C1; test: as §1; settings: Escherichia coli
[6] = substrate: Nc1ncnc2c1ncn2[C@H]1CC[C@@H](CC(F)(F)P(=O)(O)O)C1; test: as §1; settings: Escherichia coli
[7] = substrate: Nc1ncnc2c1ncn2[C@H]1CC[C@@H](CCP(=O)(O)O)C1; test: as §1; settings: Escherichia coli
[8] = substrate: Nc1ncnc2c1ncn2CCCCCP(=O)(O)O; test: as §1; settings: Escherichia coli
[9] = substrate: Nc1ncnc2c1ncn2CCOCP(=O)(O)O; test: as §1; settings: Escherichia coli
[10] = substrate: Nc1ncnc2c1ncn2[C@@H]1C[C@H](CCP(=O)(O)O)C[C@@H]1O; test: as §1; settings: Escherichia coli
[11] = substrate: Nc1ncnc2c1ncn2C1CCC(COP(=O)(O)O)O1; test: Vmax as a substrate for 0.4 ug of Pyrophosphate Synthetase (PRPP) per assay; settings: Escherichia coli
[12] = substrate: Nc1ncnc2c1ncn2C1O[C@H](COP(=O)(O)O)[C@H](O)[C@@H]1O; test: (§2) Km value as a substrate for Pyrophosphate Synthetase (PRPP); settings: Escherichia coli
[13] = substrate: Nc1ncnc2c1ncn2[C@H]1CC[C@@H](CCOP(=O)(O)O)C1; test: as §2; settings: Escherichia coli
[14] = substrate: Nc1ncnc2c1ncn2[C@H]1CC[C@@H](CCP(=O)(O)O)C1; test: as §2; settings: Escherichia coli
[15] = substrate: Nc1ncnc2c1ncn2CCCCCP(=O)(O)O; test: as §2; settings: Escherichia coli
[16] = substrate: Nc1ncnc2c1ncn2[C@@H]1C[C@H](CCP(=O)(O)O)C[C@@H]1O; test: as §2; settings: Escherichia coli
[17] = substrate: Nc1ncnc2c1ncn2C1CCC(COP(=O)(O)O)O1; test: Km value as a substrate for 0.4 ug of Phosphribosyl Pyrophosphate Synthetase (PRPP) per assay; settings: Escherichia coli

Q: Which Ratio [1] does the source give for `Nc1ncnc2c1ncn2[C@H]1CC[C@@H](CCOP(=O)(O)O)C1` here?
A: 179

Q: Which Ratio [2] does the source give for `Nc1ncnc2c1ncn2C1CCC(COP(=O)(O)O)O1` (stereo unspecified) here?
A: 1

Q: For `Nc1ncnc2c1ncn2CCCCCP(=O)(O)O`, which Ratio [1] is on record?
A: 32

Q: For `Nc1ncnc2c1ncn2[C@@H]1O[C@H](COP(=O)(O)O)[C@H](O)[C@@H]1O`, which Ratio [1] is on record?
A: 13

Q: With `Nc1ncnc2c1ncn2[C@@H]1C[C@H](CCP(=O)(O)O)C[C@@H]1O` as the molecule, how does the Ratio [1] read?
A: 11

Q: For `Nc1ncnc2c1ncn2[C@H]1CC[C@@H](CCP(=O)(O)O)C1`, which Ratio [1] is on record?
A: 63

B1: Ribose-phosphate pyrophosphokinase 1 (Homo sapiens), P60891 (protein)
chain: MPNIKIFSGSSHQDLSQKIADRLGLELGKVVTKKFSNQETCVEIGESVRGEDVYIVQSGCGEINDNLMELLIMINACKIASASRVTAVIPCFPYARQDKKDKSRAPISAKLVANMLSVAGADHIITMDLHASQIQGFFDIPVDNLYAEPAVLKWIRENISEWRNCTIVSPDAGGAKRVTSIADRLNVDFALIHKERKKANEVDRMVLVGDVKDRVAILVDDMADTCGTICHAADKLLSAGATRVYAILTHGIFSGPAISRINNACFEAVVVTNTIPQEDKMKHCSKIQVIDISMILAEAIRRTHNGESVSYLFSHVPL
Q: For B1, which Vmax [3] is on record?
A: 34.5 µM/h

Q: What about the Vmax [4] of the same molecule?
A: 45%

Q: And the Vmax [5]?
A: 0.5%

Q: And the Vmax [6]?
A: 0.07%

Q: What about the Vmax [7] of the same molecule?
A: 3%

Q: What about the Vmax [8] of the same molecule?
A: 7.5%

Q: And the Vmax [9]?
A: 0.2%

Q: What about the Vmax [10] of the same molecule?
A: 7.4%

Q: What about the Vmax [11] of the same molecule?
A: 100%

Q: What about the Km [12] of the same molecule?
A: 1700 µM

Q: What about the Km [13] of the same molecule?
A: 260 µM

Q: What about the Km [14] of the same molecule?
A: 550 µM

Q: What about the Km [15] of the same molecule?
A: 690 µM

Q: And the Km [16]?
A: 240 µM

Q: What about the Km [17] of the same molecule?
A: 290 µM
